This note sets out measurements from paper PMC4911367.

In test [1] the target is pyrene labeled rabbit skeletal F-actin (rabbit) (UniProt P68135).
For test [2] the target is unchanged. As to the kind of experiment: other fluorescence titration; 0.5 uM pyrene labeled F-actin titrated with myosin in 0.05 uM increments to ~2 fold molar excess, rigor conditions; excitation 340 nm, emission 407 nm; quadratic fit; apparent Kd and stoichiometry n.
Test [3] has the same target. Put plainly: stopped-flow pyrene fluorescence; 0.25 uM myosin with 0.25 uM pyrene labeled F-actin (0.25 uM phalloidin) in rigor buffer 0.4 M KCl, 1 mM DTT, 10 mM MOPS pH 7.0, mixed 1:1 with 10-150 uM MgATP; MgATP-induced dissociation, single exponential fit.
Test [4] concerns the target RLC-depleted porcine cardiac (PC) myosin (porcine) (UniProt P79293). As to the kind of experiment: reconstitution of RLC-depleted skinned muscle strips, SDS-PAGE; skinned porcine papillary muscle strips depleted of RLC with CDTA/Triton X-100, incubated with 40 uM RLC-WT or IVS6-1 and 2 mM DTT in pCa 8 solution, then RLC and TnC; washed, SDS-PAGE.
The target is the same in test [5]. Put plainly: co-sedimentation; ~2.8 uM RLC-depleted PC myosin titrated with 0.1-14 uM human WT or IVS6-1 RLC (molar ratio 0.1-5.0) in 0.4 M KCl, 50 mM MOPS pH 7.0, 2 mM MgCl2, 1 mM DTT, with BSA, 30 min room temperature; myosin precipitated with 13 vol ice-cold water, pellet on SDS-PAGE, RLC/ELC band ratio; apparent Kd.

A word on the stoichiometry N: it is a count of units in the complex or per binding partner.

Regarding “porcine cardiac myosin reconstituted with human cardiac RLC IVS6-1 (from UniProt P79293 1-1935; P10916 1-134) (complex)”, in test [1], the Km (actin) of actin-activated myosin ATPase activity turned out to be 3.33 µM and the Vmax of actin-activated myosin ATPase activity (F-actin 0.1-25 uM, ~1.9 uM myosin, 30°C) was 0.15 s⁻¹. Moreover, in test [2], the Kd stood at 16.7 nM and the stoichiometry N was determined as 0.59. For the same molecule, in test [3], the k1, MgATP-induced actin-myosin dissociation rate at 10 μM MgATP came out at 5.5 s⁻¹; the k1, MgATP-induced actin-myosin dissociation rate at 25 μM MgATP was 14.4 s⁻¹; the k1, MgATP-induced actin-myosin dissociation rate at 40 μM MgATP is 21 s⁻¹; the k1, MgATP-induced actin-myosin dissociation rate at 60 μM MgATP amounted to 30.5 s⁻¹. In test [3], this molecule registered a k1, MgATP-induced actin-myosin dissociation rate at 80 μM MgATP of 41.4 s⁻¹; a k1, MgATP-induced actin-myosin dissociation rate at 125 μM MgATP of 57.5 s⁻¹; a k1, MgATP-induced actin-myosin dissociation rate at 150 μM MgATP of 67.8 s⁻¹.
Consider “human cardiac RLC IVS6-1 (c403-1G>C) splice site mutant protein (from UniProt P10916 1-134) (natural protein)”, for which the percent fiber reconstitution in test [4] stood at 100%. Besides, the Kd in test [5] stood at 4410 nM.
Turning to “native porcine cardiac (PC) myosin (from UniProt P79293 1-1935) (complex)”, in test [1], the Km (actin) of actin-activated myosin ATPase activity is 1.93 µM and the Vmax of actin-activated myosin ATPase activity (F-actin 0.1-25 uM, ~1.9 uM myosin, 30°C) was 0.24 s⁻¹. In addition, in test [2], the Kd is 2.9 nM and the stoichiometry N worked out at 0.47. In test [3], the k1, MgATP-induced actin-myosin dissociation rate at 10 μM MgATP stood at 6.2 s⁻¹; the k1, MgATP-induced actin-myosin dissociation rate at 25 μM MgATP worked out at 15.8 s⁻¹; the k1, MgATP-induced actin-myosin dissociation rate at 40 μM MgATP stood at 24.5 s⁻¹; the k1, MgATP-induced actin-myosin dissociation rate at 60 μM MgATP is 33.4 s⁻¹. In test [3], this molecule registered a k1, MgATP-induced actin-myosin dissociation rate at 80 μM MgATP of 47.2 s⁻¹; a k1, MgATP-induced actin-myosin dissociation rate at 125 μM MgATP of 65.9 s⁻¹; a k1, MgATP-induced actin-myosin dissociation rate at 150 μM MgATP of 86.8 s⁻¹.
As for “porcine cardiac myosin reconstituted with human cardiac RLC WT (from UniProt P79293 1-1935; P10916 1-166) (complex)”, in test [1], the Km (actin) of actin-activated myosin ATPase activity was found to be 3.67 µM and the Vmax of actin-activated myosin ATPase activity (F-actin 0.1-25 uM, ~1.9 uM myosin, 30°C) was 0.25 s⁻¹. In addition, in test [2], the Kd is 4.6 nM and the stoichiometry N was 0.51. In addition, in test [3], the k1, MgATP-induced actin-myosin dissociation rate at 10 μM MgATP stood at 7.4 s⁻¹; the k1, MgATP-induced actin-myosin dissociation rate at 25 μM MgATP stood at 15.6 s⁻¹; the k1, MgATP-induced actin-myosin dissociation rate at 40 μM MgATP is 19.9 s⁻¹; the k1, MgATP-induced actin-myosin dissociation rate at 60 μM MgATP is 36 s⁻¹. In test [3], this molecule showed a k1, MgATP-induced actin-myosin dissociation rate at 80 μM MgATP of 50.4 s⁻¹; a k1, MgATP-induced actin-myosin dissociation rate at 125 μM MgATP of 70.4 s⁻¹; a k1, MgATP-induced actin-myosin dissociation rate at 150 μM MgATP of 88.7 s⁻¹.

B1: wild-type (WT) human cardiac (ventricular/slow-twitch skeletal) myosin regulatory light chain (natural protein)
chain: MAPKKAKKRAGGANSNVFSMFEQTQIQEFKEAFTIMDQNRDGFIDKNDLRDTFAALGRVNVKNEEIDEMIKEAPGPINFTVFLTMFGEKLKGADPEETILNAFKVFDPEGKGVLKADYVREMLTTQAERFSKEEVDQMFAAFPPDVTGNLDYKNLVHIITHGEEKD
Turning to B1, the percent fiber reconstitution in test [4] was determined as 100%. Besides, in test [5], the Kd was determined as 1420 nM.
